Results taken from patent publication US20260217835.
Changes are numbered by the printed parent chain. Numbers in names are those of the source.

B1: full-length IgG heavy chain with CH3 modification Y349C/E357C/K392D/D399K (SEQ ID NO: 51), coexpressed with light chain SEQ ID NO: 61 (protein)
chain 1: QVQLQESGPGLVRPSQTLSLTCTVSGYSITSDHAWSWVRQPPGRGLEWIGYISYSGITTYNPSLKSRVTMLRDTSKNQFSLRLSSVTAADTAVYYCARSLARTTAMDYWGQGSLVTVSSASTKGPSVFPLAPSSKSTSGGTAALGCLVKDYFPEPVTVSWNSGALTSGVHTFPAVLQSSGLYSLSSVVTVPSSSLGTQTYICNVNHKPSNTKVDKRVEPKSCDKTHTCPPCPAPELLGGPSVFLFPPKPKDTLMISRTPEVTCVVVDVSHEDPEVKFNWYVDGVEVHNAKTKPREEQYNSTYRVVSVLTVLHQDWLNGKEYKCKVSNKALPAPIEKTISKAKGQPREPQVCTLPPSRECMTKNQVSLTCLVKGFYPSDIAVEWESNGQPENNYDTTPPVLKSDGSFFLYSKLTVDKSRWQQGNVFSCSVMHEALHNHYTQKSLSLSP
chain 2: not shown
B2: full-length IgG heavy chain with CH3 modification E345R/Q347R/K360D/T366V/D399M/Y407A/K409V (SEQ ID NO: 55), coexpressed with light chain SEQ ID NO: 61 (protein)
chain 1: B1 chain 1 with E347R, Q349R, C351Y, C359E, K362D, T368V, D394K, K401M, Y409A, K411V
chain 2: not shown
B3: full-length IgG heavy chain with CH3 modification E345R/K360E/D399M/Y407A/K409V (SEQ ID NO: 58), coexpressed with light chain SEQ ID NO: 61 (protein)
chain 1: B1 chain 1 with E347R, C351Y, C359E, K362E, D394K, K401M, Y409A, K411V
chain 2: not shown
B4: full-length IgG heavy chain with CH3 modification E356K/K392D/D399K/K409D (SEQ ID NO: 56), coexpressed with light chain SEQ ID NO: 61 (protein)
chain 1: B1 chain 1 with C351Y, E358K, C359E, K411D
chain 2: not shown
B5: full-length IgG heavy chain with CH3 modification T350V/L351Y/T366L/K392L/T394W/F405A/Y407V (SEQ ID NO: 60), coexpressed with light chain SEQ ID NO: 61 (protein)
chain 1: B1 chain 1 with C351Y, T352V, L353Y, C359E, T368L, D394L, T396W, K401D, F407A, Y409V
chain 2: not shown

Target: T1, IgG1 Fc fragment with CH3 modification E345R/Q347R/K360D/T366V/D399M/Y407A/K409V (SEQ ID NO: 74)
T1 chain: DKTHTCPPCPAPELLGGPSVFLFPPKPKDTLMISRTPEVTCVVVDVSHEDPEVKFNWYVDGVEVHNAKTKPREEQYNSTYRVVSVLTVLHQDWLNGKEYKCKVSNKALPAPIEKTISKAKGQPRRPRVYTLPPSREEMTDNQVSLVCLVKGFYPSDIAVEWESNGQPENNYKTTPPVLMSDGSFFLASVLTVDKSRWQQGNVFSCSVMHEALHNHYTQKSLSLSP
Experiment: SEC area ratio of heteromultimer after coexpression of full-length heavy chain, light chain and Fc fragment in Expi293F

Protein	heterodimer formation ratio (%)
B1	2
B2	52
B3	51
B4	0
B5	0

Target: T2, IgG1 Fc fragment with CH3 modification Y349C/E357C/K392D/D399K (SEQ ID NO: 73)
T2 chain: T1 chain with R125E, R127Q, Y129C, E137C, D140K, V146T, K172D, M179K, A187Y, V189K
Experiment: as above

Protein	heterodimer formation ratio (%)
B1	56
B2	0
B3	0
B4	0
B5	0

Target: T3, IgG1 Fc fragment with CH3 modification Q347R/K360E/D399V/F405T/K409W (SEQ ID NO: 66)
T3 chain: T1 chain with R125E, D140E, V146T, M179V, F185T, A187Y, V189W
Experiment: as above

Protein	heterodimer formation ratio (%)
B1	0
B2	6
B3	4
B4	0
B5	0

Target: T4, IgG1 Fc fragment with CH3 modification T366W/L368A/Y407V (SEQ ID NO: 65)
T4 chain: T1 chain with R125E, R127Q, D140K, V146W, L148A, M179D, A187V, V189K
Experiment: as above

Protein	heterodimer formation ratio (%)
B1	0
B2	0
B3	0
B4	0
B5	0

Target: T5, IgG1 Fc fragment with CH3 modification E356K/D399K/K409E/K439E (SEQ ID NO: 68)
T5 chain: T1 chain with R125E, R127Q, E136K, D140K, V146T, M179K, A187Y, V189E, K219E
Experiment: as above

Protein	heterodimer formation ratio (%)
B1	0
B2	0
B3	0
B4	53
B5	0

Target: T6, IgG1 Fc fragment with CH3 modification E356K/K392D/D399K/K409D (SEQ ID NO: 75)
T6 chain: T1 chain with R125E, R127Q, E136K, D140K, V146T, K172D, M179K, A187Y, V189D
Experiment: as above

Protein	heterodimer formation ratio (%)
B1	0
B2	0
B3	0
B4	56
B5	0

Target: T7, IgG1 Fc fragment with CH3 modification T350V/L351Y/T366L/K392L/T394W/F405A/Y407V (SEQ ID NO: 77)
T7 chain: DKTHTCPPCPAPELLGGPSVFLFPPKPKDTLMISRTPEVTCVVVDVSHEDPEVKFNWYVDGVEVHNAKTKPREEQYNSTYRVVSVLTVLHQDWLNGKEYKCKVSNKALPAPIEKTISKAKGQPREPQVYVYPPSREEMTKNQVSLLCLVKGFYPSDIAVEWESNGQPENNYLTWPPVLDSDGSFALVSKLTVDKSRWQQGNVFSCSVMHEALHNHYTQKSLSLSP
Experiment: as above

Protein	heterodimer formation ratio (%)
B1	0
B2	0
B3	0
B4	0
B5	51

Target: T8, IgG1 Fc fragment with CH3 modification K392D/D399K/K409D (SEQ ID NO: 72)
T8 chain: T1 chain with R125E, R127Q, D140K, V146T, K172D, M179K, A187Y, V189D
Experiment: as above

Protein	heterodimer formation ratio (%)
B1	9
B2	0
B3	3
B4	51
B5	0

Target: T9, IgG1 Fc fragment with CH3 modification E356K/K392D/D399K/K439E (SEQ ID NO: 71)
T9 chain: T7 chain with V130T, Y131L, E136K, L146T, L172D, W174T, D179K, A185F, V187Y, K219E
Experiment: as above

Protein	heterodimer formation ratio (%)
B1	0
B2	0
B3	0
B4	60
B5	0
